In paper PMC5862501, “Lung macrophage scavenger receptor SR-A6 (MARCO) is an adenovirus type-specific virus entry receptor” (PLoS Pathogens, 2018):

B1: soluble mouse SR-A6 (entire extracellular part) (domain or fragment)
chain: QVLNLQEQLQMLEMCCGNGSLAIEDKPFFSLQWAPKTHLVPRAQGLQALQAQLSWVHTSQEQLRQQFNNLTQNPELFQIKGERGSPGPKGAPGAPGIPGLPGPAAEKGEKGAAGRDGTPGVQGPQGPPGSKGEAGLQGLTGAPGKQGATGAPGPRGEKGSKGDIGLTGPKGEHGTKGDKGDLGLPGNKGDMGMKGDTGPMGSPGAQGGKGDAGKPGLPGLAGSPGVKGDQGKPGVQGVPGPQGAPGLSGAKGEPGRTGLPGPAGPPGIAGNPGIAGVKGSKGDTGIQGQKGTKGESGVPGLVGRKGDTGSPGLAGPKGEPGRVGQKGDPGMKGSSGQQGQKGEKGQKGESFQRVRIMGGTNRGRAEVYYNNEWGTICDDDWDNNDATVFCRMLGYSRGRALSSYGGGSGNIWLDNVNCRGTENSLWDCSKNSWGNHNCVHNEDAGVECS
notes: SR-A6 (MARCO), mouse, the entire extracellular part; Largely monomeric with a small amount of trimers (15-20%) in non-reducing SDS-PAGE; also called mSR-A6 soluble; soluble SR-A6

Experiments:
[1] = biological target: mouse SR-A6 expressed in L-929 cells (mouse) (UniProt Q60754); assay: binding of fluorophore-labelled virions to cells, confocal microscopy; Alexa-Fluor488-labelled HAdV-C5 bound at 4°C to L-929 cells transfected with mouse SR-A6-IRES-Tomato; Tomato-positive against Tomato-negative cells
[2] = biological target: the molecule itself; assay: non-reducing SDS-PAGE; purified soluble mSR-A6; monomers and trimers

| Molecule | fold, mean cell-associated virus number in Tomato-positive over Tomato-negative cells [1] [fold] | stoichiometry N [2] |
| --- | --- | --- |
| human adenovirus type C5 (HAdV-C5) virion (complex) | 7 | – |
| B1 | – | 3 |
